Test results reported in publication doi:10.1101/2025.08.25.672209, “Molecular Architecture and Function Mechanism of Tri-heteromeric GluN1-N2-N3A NMDA Receptors” (bioRxiv, 2025).

Experiments:
[1] = target: T1, GluN1-N3A di-heteromeric NMDA receptor (rat, CTD-truncated; fraction of the same preparation) (rat, UniProt P35439-1;Q9R1M7-1); assay: SEC; fluorescence-detection size-exclusion chromatography (FSEC); receptors preincubated with N1-Fab 4F11, N2A-Fab 28C or both; shift of the elution peak; conditions: both partners purified
T1 construct: signal peptide in the construct; rat GluN1-1a, residues 1-847, as m1; rat GluN3A, residues 1-965, as m3; also called GluN1-N3A di-NMDARs; source: HEK293S GnTI- cells, baculovirus transduction; copies: 2 + 2

[2] = target: T2, rat GluN1-1a (residues 1-847), CTD-truncated (rat, UniProt P35439-1); assay: cryo-EM structure; GluN1-N2A-N3A (subunits co-expressed and co-purified) incubated with Fabs 4F11 and 2-8C, SEC in digitonin with 1 mM glycine and 1 mM glutamate, pH 8.0; overall resolution 7.7 Å; conditions: both partners purified
T2 construct: signal peptide in the construct; rat GluN1-1a, residues 1-847 (CTD-truncated), GenBank NP_058706.1; no tag is stated for GluN1 itself; a T2A remnant may remain on one of the two chains (surmise); source: HEK293S GnTI- cells, baculovirus transduction, co-expressed with GluN2A and GluN3A; purified as receptor complex (Strep-Tactin, Ni resin, SEC)

- binding result [1]: binds
- binding result [2]: binds
B1: N1-Fab 4F11 (Fab of the anti-GluN1 monoclonal antibody clone 4F11) (Fab, V domains shown)
VH: DVQLQESGPGLVKPSQSLSLTCTVTGYSITSDYAWNWIRQFPGNKLEWMGYISYSGSTGYNPSLKSRISITRDTSKNQFFLQLNSVTTEDTATYYCARLYYGFYGMDYWGQGTSVTVSS
VL: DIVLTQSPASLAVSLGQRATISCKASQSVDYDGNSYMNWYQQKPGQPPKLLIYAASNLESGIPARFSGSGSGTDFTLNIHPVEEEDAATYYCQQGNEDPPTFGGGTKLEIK
notes: Raised against CTD-truncated human GluN1-N2A receptors; also called Fab-N1_(4F11); source: hybridoma monoclonal antibody, papain digestion, Fc removed with protein-A agarose, purified by SEC
